Data: the supplement of paper PMC10567573

B1: ALDH8A1 (parent)
chain: FTGSQPTAERITQLSAPHCKKLSL
B2: EPB41L3 (parent)
chain: GSKFRYSGRTQAQTRRASALIDRP

Variants of: B1
Assay: protein stability index of a GFP-peptide fusion (GPS, HEK-293T) (PSI 1-6); higher = more stable
Settings: c terminus: a fixed tail appended
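Note: lentivirally expressed fusions sorted by FACS into six bins by GFP to DsRed ratio, PSI derived from sequencing read proportions per bin multiplied by bin number.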

Protein stability index, by site and new letter:
H18: F 2.25 | K 2.34 | E 1.78 | G 2.05 | I 2.55 | L 2.46 | S 2.74 | A 2.05 | D 3.24 | W 1.85 | Q 2.29 | M 2.24 | Y 2.14 | N 2.11 | P 2.93 | C 1.94 | R 2.55 | V 3 | T 2.31
K21: Q 2.23 | R 2.41 | A 2.56 | H 2.1 | Y 2.1 | T 2.06 | V 2.22 | C 1.59 | E 2.65 | L 1.84 | M 2.45 | G 2.01 | F 1.9 | W 1.71 | I 1.71 | P 2.32 | N 2.05 | S 2.22 | D 2.89
L22: N 2.54 | V 1.91 | S 2.61 | W 2.19 | I 2.76 | T 2.61 | P 2.26 | E 3.46 | D 2.67 | R 2.23 | A 2.85 | Q 2.68 | F 1.92 | M 2.14 | H 2.29 | C 2.27 | K 2.68 | Y 2.68 | G 2.88
C19: G 2.58 | F 2.91 | M 1.96 | I 1.66 | R 2.45 | V 2.04 | N 2.16 | E 2.79 | Q 2.79 | H 2.33 | A 2.35 | W 1.6 | K 2.75 | L 1.91 | D 2.73 | S 1.96 | P 2.06 | T 2.45 | Y 1.68
S23: N 2.39 | K 2.03 | V 1.93 | I 2.15 | C 1.78 | Y 2.66 | Q 2.35 | G 1.97 | T 1.88 | P 2.33 | A 2.4 | E 2.56 | F 2.27 | L 1.81 | M 2.27 | W 1.85 | R 1.79 | D 2.69 | H 2.02
L24: T 2.56 | Q 2.9 | D 3.23 | W 1.93 | I 2.04 | E 2.96 | Y 2.2 | G 2.67 | K 2.5 | S 2.95 | P 2.9 | R 2.52 | A 2.6 | C 2.52 | F 1.97 | N 2.97 | H 2.52 | M 2.46 | V 2.38
K20: V 1.93 | G 2.85 | N 2.53 | Q 2.8 | M 1.84 | E 2.75 | S 2.26 | L 1.84 | T 2.19 | A 2.2 | P 2.3 | R 1.78 | W 1.61 | F 1.52 | D 2.57 | Y 2.5 | H 1.88 | C 2.09 | I 1.61
P17: Y 2.05

Variants of: B2
Assay: as above
Settings: c terminus: a fixed tail appended

Protein stability index of substitutions, site by site:
F4: K 4.62 | Q 4.47 | V 4.28 | E 3.82 | Y 3.56 | I 4
D22: I 2.83 | S 3.11 | W 2.72 | V 2.66 | N 2.82 | M 2.69 | C 2.99
Y6: E 4.13 | D 4 | A 3.85 | K 4.13 | V 3.86 | I 3.62 | N 3.67 | W 3.49
R23: C 2.89 | I 2.11 | K 2.94 | F 2.69 | E 3.32 | W 2.77 | A 2.81 | V 2.67
T10: E 3.01 | P 3.74 | R 3.62 | F 2.68 | K 3.89
L20: F 2.65 | R 3.28 | Q 3.79 | I 3.19 | K 3.79 | C 3.12 | S 3.46 | A 3.29 | D 3.84 | N 3.78 | T 3.62
R5: S 3.8 | P 3.27 | F 2.89 | G 3.8 | Y 2.82 | Q 3.26
Q13: N 3.39 | C 2.98 | K 3.19 | L 2.91 | T 2.73 | V 3.53 | E 3.27 | I 2.9
T14: D 3.41 | M 2.29 | W 2.22 | I 2.69 | G 3.17 | Y 2.73 | V 3.19 | A 3.25 | H 2.77
A19: I 3.04 | K 3.39 | V 2.42 | Q 3.22 | W 2.45 | F 2.41 | N 3.4 | Y 2.07 | E 3.28 | P 2.68 | H 3.26 | T 3.3
K3: P 2.04 | D 2.5 | H 2.33 | I 2.67 | R 2.83 | V 2.33 | S 2.64
S2: Y 2.68 | F 2.55 | C 2.44 | T 2.82 | K 3.56 | G 3.31 | A 2.66 | M 2.27 | N 2.6 | W 2.44 | L 2.33 | I 2.74
R15: T 3.58 | A 3.25 | E 3.57 | N 3.68 | F 2.44 | V 2.99 | C 2.06 | W 2.45 | M 3.21
R16: D 3.56 | K 2.83 | N 3.42 | T 3.4 | V 2.34 | H 3.32 | S 3.08 | P 3.15
A17: C 2.09 | P 2.96 | K 3.16 | F 2.52 | T 2.99 | E 3.54 | Y 2.54 | L 2.65 | Q 3.58
Q11: A 2.86 | S 2.18 | N 3 | F 2.45 | C 2.6 | I 2.95 | L 2.5 | H 2.85 | D 3.09 | K 3.11 | Y 2.64 | W 1.75
R9: S 3.44 | T 3.01 | K 2.97 | W 2.33 | D 3.52 | P 3.87 | I 2.81 | F 2.81
A12: H 2.82 | C 3.32 | Y 2.89 | E 3.2 | S 3.41 | L 3.38 | K 3.15 | W 2.25 | R 3.42 | I 3.07
S18: H 3.42 | R 3.08 | I 2.7 | G 3.54
I21: D 3.58 | L 3.17 | P 2.71 | W 2.4 | K 3.48 | Y 2.73
S7: G 3.85 | P 3.36 | W 2.4 | A 2.91 | H 2.94 | F 2.96 | I 1.95 | K 3.79 | E 3.63 | L 3.08
G1: M 2.58 | D 3.06 | R 3.17 | N 3.34 | K 3.33 | Q 2.74 | A 3.02
G8: D 3.02 | P 3.43 | M 3.88 | I 2.93 | Q 3.39 | W 2.1 | H 2.95
P24: I 2.71 | Y 2.78 | E 3.19 | N 2.8 | T 3.05 | H 3.47 | V 3.05 | K 3.44 | G 3.32 | C 3.06 | R 3.54
